Assay results reported in US20220193204A1 (BAYLOR COLLEGE OF MEDICINE, published 2022).
Changes are numbered by the printed parent chain. Names and notes keep the numbering of the source.

Experiments:
[1] = target: recombinant SARS-CoV-2 spike protein (S) (SARS-CoV-2, UniProt P0DTC2 16-1213)
[2] = target: recombinant human vimentin (human, UniProt P08670 2-466, limits assumed); test: ELISA: increasing concentrations of A2 variant on recombinant human vimentin, bound A2 detected with anti-A2 antibody and a secondary HRP conjugate
Chain of recombinant human vimentin (P08670 2-466 limits assumed): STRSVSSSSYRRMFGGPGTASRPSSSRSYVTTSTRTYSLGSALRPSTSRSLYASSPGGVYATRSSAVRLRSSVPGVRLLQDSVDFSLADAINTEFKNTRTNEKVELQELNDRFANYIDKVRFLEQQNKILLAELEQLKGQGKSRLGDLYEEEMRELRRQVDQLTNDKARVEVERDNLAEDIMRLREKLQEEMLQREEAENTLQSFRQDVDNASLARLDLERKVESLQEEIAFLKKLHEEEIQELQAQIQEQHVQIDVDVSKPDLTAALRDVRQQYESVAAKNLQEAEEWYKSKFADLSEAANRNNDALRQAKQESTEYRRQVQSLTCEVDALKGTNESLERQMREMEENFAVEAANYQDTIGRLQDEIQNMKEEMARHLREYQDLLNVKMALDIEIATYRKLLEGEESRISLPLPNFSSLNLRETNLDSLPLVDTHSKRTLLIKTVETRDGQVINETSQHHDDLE

B1: recombinant A2 domain of human von Willebrand factor (WT A2 protein) (other)
chain: GLLGVSTLGPKRNSMVLDVAFVLEGSDKIGEADFNRSKEFMEEVIQRMDVGQDSIHVTVLQYSYMVTVEYPFSEAQSKGDILQRVREIRYQGGNRTNTGLALRYLSDHSFLVSQGDREQAPNLVYMVTGNPASDEIKRLPGDIQVVPIGVGPNANVQELERIGWPNAPILIQDFETLPREAPDLVLQR
modifications: conjugated to Alexa Fluor 488 in the confocal microscopy experiments only
notes: not shown: histidine tag (vector pQE-9/VWF-A2)
binding result [1]: no binding
EC50 (read off the curve) [2]: ~40 nM

B2: recombinant A2 (E1567A) mutant of the A2 domain of human von Willebrand factor (other)
chain: B1 chain with E87A
notes: also called A2 mutant; A2 mutant protein; not shown: Histidine tag from the pQE-9 vector
EC50 (read off the curve) [2]: ~70 nM
